Measured values taken from IntAct's records for PubMed 16287128.

B1: Matrilin-3 (Homo sapiens), O15232 (parent)
chain: MPRPAPARRLPGLLLLLWPLLLLPSAAPDPVARPGFRRLETRGPGGSPGRRPSPAAPDGAPASGTSEPGRARGAGVCKSRPLDLVFIIDSSRSVRPLEFTKVKTFVSRIIDTLDIGPADTRVAVVNYASTVKIEFQLQAYTDKQSLKQAVGRITPLSTGTMSGLAIQTAMDEAFTVEAGAREPSSNIPKVAIIVTDGRPQDQVNEVAARAQASGIELYAVGVDRADMASLKMMASEPLEEHVFYVETYGVIEKLSSRFQETFCALDPCVLGTHQCQHVCISDGEGKHHCECSQGYTLNADKKTCSALDRCALNTHGCEHICVNDRSGSYHCECYEGYTLNEDRKTCSAQDKCALGTHGCQHICVNDRTGSHHCECYEGYTLNADKKTCSVRDKCALGSHGCQHICVSDGAASYHCDCYPGYTLNEDKKTCSATEEARRLVSTEDACGCEATLAFQDKVSSYLQRLNTKLDDILEKLKINEYGQIHR
partner: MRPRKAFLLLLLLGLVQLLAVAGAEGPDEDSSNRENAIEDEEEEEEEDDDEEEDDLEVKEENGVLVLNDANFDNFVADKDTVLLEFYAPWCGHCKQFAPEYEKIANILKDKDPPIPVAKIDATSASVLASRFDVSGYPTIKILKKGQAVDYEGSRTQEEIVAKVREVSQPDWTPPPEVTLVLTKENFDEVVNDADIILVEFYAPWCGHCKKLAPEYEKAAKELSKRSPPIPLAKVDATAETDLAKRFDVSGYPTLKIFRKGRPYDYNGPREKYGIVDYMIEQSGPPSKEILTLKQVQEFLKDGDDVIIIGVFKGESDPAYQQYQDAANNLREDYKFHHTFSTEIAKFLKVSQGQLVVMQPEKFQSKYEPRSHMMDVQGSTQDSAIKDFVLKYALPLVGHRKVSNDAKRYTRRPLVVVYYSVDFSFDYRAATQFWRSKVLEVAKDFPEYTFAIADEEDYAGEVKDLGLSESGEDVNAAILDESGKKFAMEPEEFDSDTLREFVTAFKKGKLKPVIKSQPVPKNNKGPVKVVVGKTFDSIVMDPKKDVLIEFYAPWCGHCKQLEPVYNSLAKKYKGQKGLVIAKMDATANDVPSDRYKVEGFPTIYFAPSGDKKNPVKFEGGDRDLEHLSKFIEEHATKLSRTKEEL

Variants of: B1
Settings: with pdia4_human PDIA4, P13667

Row | Variant | effect of a mutation on the interaction
1 | A219D | causing an interaction
2 | R121W | causing an interaction
3 | E252K | with no effect
4 | V194D | causing an interaction
